From article PMC5159607

Substrate: Oc1ccc2c(c1)OC[C@@]1(O)c3ccc(O)cc3O[C@@H]21
Test: HPLC prenyltransferase assay, recombinant yeast microsomes, Lineweaver-Burk
Format: biochemical, Glycine max
Details: 400 µM DMAPP, divalent cation required (Mg2+ preferred), 30 °C, 15 min

B1: G2DT (PT7; ΔTP-PT7) (Glycine max) (protein)
chain: YKKKTQIECNILRSQQSSLNHHYKRIEGGATYQDCDKKYVVKAIPEPTFDSEPCASNPENVVDSAKKILDVFYHFCYPYSMIAIILCAISSSLLAVEKPSDISSSFLIGVLQALVPHLFVAVFANVVNQVFDYEIDKINKPYLPLASGQLSFTTAVFIAASLLIMSFWLSLVIGSWPLIWNVVLTSSVWNVYSINVPLLRWKRHPLLATICTISVWAFILPITFFLHMQTFVLKRPIVFPRSLIFYVVFMIFYSLGMALSKDISDVKGDKAYGIDTLAIRLGQKWVFWICIILFEMAFGVALLAGATSSYLWIKIVTGLGHAILASILLYQAKSIYLSNKVSTISFYMLIWKLLYAAYFLMALIR
**Q.** B1 was tested. Which Km did it give?
**A.** Its Km is 183 µM.
